Experimental data from patent US20230272045A1 (MONASH UNIVERSITY, published 2023).

Experiments:
Test in all cases: ELISA; ECM protein coated at 100 nM, BMP-2 0.1 to 100 nM
[1] = target: T1, human plasma fibronectin (human, UniProt P02751-8 32-2296, limits assumed)
T1 construct: Coated on ELISA plates at 100 nM; also called Fn
Procedure: (§1) ELISA plates (Greiner bio-one medium binding, Thermo Fisher Scientific) were coated with 100 nM of ECM proteins in […] of PBS for 1 h at 37° C. Then, wells were washed with […] of PBS-T (0.05% Tween-20) and blocked with […] of BSA solution (1% in PBS-T) for 1 h at room temperature. Wells without ECM protein coating, and wells blocked only with the BSA solution were used as controls for non-specific binding. ECM coated wells and control wells were further incubated 1 h at room temperature with solutions of BMP-2 (Peprotech), murine PDGF-BB (Peprotech), IL-1Ra (R&D Systems), or PIGF₁₂₃₋₁₄₁-fused proteins at concentrations ranging from 0 to 100 nM ([…] in PBS-T containing 0.1% BSA prepared in protein-low bind tubes (PROKEEP, Watson bio lab). Then, wells were washed 3 times with […] of PBS-T and incubated for 1 h with […] of biotinylated polyclonal detection antibodies in PBS-T with 0.1% BSA. Detection antibodies used were from BMP-2 DuoSet ELISA (R&D Systems, DY355) for BMP-2, PDGF-BB DuoSet ELISA (R&D Systems, DY8464) for PDGF-BB and IL-1Ra/IL-1F3
(§2) DuoSet ELISA (R&D Systems, DY480) for IL-1Ra. Wells were further washed 3 times with PBS-T and incubated for 20 min with […] of streptavidin-horseradish peroxidase (HRP). After three washes with PBS-T, TMB (ThermoFisher) was added followed by […] of stop solution (0.16M sulfuric acid). Concentrations of detection antibodies and streptavidin-HRP were used according to the manufacturer's instructions. To calculate the dissociation constants (KD) specific-binding values were fitted with a one site specific binding model using A450 nm=Bmax*[growth factors or IL-1Ra variants]/(KD+[growth factors or IL-1Ra variants]).

[2] = target: T2, human vitronectin (human, UniProt P04004 20-478)
T2 construct: Coated on ELISA plates at 100 nM; also called Vn
T2 sequence (P04004 20-478 limits assumed): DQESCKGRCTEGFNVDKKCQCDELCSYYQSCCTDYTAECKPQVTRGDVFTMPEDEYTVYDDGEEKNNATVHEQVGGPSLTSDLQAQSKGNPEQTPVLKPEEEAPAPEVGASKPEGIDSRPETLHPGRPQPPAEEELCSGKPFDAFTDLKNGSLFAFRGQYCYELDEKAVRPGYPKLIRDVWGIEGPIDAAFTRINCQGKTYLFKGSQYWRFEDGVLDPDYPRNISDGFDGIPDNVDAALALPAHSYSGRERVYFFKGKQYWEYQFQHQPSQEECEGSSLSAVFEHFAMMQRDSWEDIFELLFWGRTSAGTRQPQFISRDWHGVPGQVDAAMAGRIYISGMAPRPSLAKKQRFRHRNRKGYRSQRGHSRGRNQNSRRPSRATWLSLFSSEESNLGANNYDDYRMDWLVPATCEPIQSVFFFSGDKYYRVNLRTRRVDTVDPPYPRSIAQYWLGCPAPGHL
Procedure: as §1, §2

[3] = target: T3, human fibrinogen (human, UniProt P02671 20-644; P02675 31-491; P02679 27-437, limits assumed)
T3 construct: Coated on ELISA plates at 100 nM; also called Fg
T3 sequence (looked up) 1: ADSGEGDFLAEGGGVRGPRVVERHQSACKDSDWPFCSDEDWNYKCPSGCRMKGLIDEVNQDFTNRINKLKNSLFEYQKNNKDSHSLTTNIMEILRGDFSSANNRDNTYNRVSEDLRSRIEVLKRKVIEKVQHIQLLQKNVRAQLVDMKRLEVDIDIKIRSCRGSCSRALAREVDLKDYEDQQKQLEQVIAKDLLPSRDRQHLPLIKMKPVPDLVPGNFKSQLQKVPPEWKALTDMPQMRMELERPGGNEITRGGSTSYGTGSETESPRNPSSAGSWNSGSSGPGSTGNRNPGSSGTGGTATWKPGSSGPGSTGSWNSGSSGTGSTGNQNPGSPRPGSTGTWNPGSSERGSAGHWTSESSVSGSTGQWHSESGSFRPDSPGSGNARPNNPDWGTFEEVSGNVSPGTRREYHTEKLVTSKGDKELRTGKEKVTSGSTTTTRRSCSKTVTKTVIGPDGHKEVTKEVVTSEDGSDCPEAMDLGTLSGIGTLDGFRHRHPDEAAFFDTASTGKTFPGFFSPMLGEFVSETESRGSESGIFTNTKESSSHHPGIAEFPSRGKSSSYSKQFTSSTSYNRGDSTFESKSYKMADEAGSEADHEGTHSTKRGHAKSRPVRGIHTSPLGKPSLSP
T3 sequence (looked up) 2: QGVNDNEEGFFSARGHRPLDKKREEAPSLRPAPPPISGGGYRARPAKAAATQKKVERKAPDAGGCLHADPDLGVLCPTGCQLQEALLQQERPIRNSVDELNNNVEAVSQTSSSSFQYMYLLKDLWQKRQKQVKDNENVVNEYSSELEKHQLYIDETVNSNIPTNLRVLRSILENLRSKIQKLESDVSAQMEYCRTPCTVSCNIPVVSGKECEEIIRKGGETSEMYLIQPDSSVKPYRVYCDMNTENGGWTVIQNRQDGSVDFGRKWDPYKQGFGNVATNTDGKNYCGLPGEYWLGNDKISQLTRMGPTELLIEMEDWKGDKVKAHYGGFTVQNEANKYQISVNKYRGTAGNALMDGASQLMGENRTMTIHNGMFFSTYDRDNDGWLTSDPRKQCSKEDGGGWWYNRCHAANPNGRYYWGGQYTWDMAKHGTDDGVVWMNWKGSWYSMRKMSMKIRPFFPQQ
T3 sequence (looked up) 3: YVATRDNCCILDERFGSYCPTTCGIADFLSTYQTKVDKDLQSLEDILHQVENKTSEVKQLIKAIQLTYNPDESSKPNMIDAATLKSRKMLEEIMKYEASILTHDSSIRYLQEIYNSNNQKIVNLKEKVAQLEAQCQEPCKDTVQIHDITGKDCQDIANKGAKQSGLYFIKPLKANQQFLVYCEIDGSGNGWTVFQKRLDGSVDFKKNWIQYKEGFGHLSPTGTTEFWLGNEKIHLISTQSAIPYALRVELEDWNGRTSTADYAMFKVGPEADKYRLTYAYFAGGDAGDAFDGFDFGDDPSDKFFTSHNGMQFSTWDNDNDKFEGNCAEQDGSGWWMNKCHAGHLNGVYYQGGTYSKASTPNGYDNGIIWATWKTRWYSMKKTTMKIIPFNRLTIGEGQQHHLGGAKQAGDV
Procedure: as §1, §2

T1 sequence (P02751 other isoform, or with tags, fused parts or gaps limits assumed): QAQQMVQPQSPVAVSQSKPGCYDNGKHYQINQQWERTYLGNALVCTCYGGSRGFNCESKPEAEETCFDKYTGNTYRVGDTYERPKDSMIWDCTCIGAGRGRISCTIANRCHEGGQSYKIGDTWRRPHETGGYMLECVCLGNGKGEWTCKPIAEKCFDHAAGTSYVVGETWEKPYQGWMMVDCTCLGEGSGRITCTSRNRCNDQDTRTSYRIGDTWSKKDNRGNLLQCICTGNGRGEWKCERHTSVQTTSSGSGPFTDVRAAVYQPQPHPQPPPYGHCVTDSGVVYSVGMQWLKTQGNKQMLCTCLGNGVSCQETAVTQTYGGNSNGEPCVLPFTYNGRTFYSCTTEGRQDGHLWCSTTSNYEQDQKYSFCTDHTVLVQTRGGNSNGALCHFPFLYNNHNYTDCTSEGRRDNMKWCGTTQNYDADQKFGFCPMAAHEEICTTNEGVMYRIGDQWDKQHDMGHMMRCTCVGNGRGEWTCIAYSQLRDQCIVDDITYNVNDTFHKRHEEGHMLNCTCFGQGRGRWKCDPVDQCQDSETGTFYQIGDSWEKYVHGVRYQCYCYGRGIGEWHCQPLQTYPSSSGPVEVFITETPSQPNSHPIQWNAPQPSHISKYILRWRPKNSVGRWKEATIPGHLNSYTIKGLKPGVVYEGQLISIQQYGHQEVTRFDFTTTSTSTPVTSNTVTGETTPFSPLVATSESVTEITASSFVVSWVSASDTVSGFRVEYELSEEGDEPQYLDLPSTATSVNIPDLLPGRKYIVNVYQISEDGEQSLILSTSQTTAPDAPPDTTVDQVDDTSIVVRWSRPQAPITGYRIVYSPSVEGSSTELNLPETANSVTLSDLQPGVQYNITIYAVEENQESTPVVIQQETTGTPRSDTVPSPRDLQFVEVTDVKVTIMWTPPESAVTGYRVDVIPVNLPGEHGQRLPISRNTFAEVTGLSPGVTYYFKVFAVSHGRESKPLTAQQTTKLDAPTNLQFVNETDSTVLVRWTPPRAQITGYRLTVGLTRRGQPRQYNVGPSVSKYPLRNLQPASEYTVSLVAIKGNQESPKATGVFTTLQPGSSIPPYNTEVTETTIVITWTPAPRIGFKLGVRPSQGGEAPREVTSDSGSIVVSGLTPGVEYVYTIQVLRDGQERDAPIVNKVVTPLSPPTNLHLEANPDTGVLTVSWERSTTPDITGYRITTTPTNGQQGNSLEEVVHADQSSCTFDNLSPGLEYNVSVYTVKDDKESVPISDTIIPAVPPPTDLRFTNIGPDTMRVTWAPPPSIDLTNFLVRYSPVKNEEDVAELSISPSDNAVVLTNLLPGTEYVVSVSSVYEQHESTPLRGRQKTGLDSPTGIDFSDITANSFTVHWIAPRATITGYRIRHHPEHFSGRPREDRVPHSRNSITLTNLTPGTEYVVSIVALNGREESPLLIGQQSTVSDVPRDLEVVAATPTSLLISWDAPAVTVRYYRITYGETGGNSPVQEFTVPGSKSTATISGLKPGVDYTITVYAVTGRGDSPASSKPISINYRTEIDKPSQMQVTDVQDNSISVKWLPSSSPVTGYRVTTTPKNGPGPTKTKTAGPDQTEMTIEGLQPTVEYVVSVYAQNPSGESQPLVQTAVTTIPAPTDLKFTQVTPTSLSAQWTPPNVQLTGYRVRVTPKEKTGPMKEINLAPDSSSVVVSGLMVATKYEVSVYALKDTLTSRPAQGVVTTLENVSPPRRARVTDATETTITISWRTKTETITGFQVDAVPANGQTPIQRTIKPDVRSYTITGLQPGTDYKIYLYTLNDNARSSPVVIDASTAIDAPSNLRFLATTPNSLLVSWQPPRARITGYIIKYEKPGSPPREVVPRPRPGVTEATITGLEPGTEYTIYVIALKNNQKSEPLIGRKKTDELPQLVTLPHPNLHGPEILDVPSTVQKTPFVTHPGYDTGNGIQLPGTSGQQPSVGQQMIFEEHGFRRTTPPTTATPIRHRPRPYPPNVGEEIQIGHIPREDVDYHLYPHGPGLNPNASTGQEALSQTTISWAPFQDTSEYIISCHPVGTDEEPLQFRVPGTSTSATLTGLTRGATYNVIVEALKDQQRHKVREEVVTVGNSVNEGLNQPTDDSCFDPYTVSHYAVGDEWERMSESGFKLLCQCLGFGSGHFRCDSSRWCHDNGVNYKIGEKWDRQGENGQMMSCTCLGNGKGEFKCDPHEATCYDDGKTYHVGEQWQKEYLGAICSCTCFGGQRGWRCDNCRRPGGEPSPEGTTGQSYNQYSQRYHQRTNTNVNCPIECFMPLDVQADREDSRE

- binding result [1]: binds
- binding result [2]: binds
- binding result [3]: binds
B1: BMP-2 (bone morphogenetic protein-2, Peprotech) (ligand, murine, UniProt P21274 281-394, looked up)
chain: QAKHKQRKRLKSSCKRHPLYVDFSDVGWNDWIVAPPGYHAFYCHGECPFPLADHLNSTNHAIVQTLVNSVNSKIPKACCVPTELSAISMLYLDENEKVVLKNYQDMVVEGCGCR
notes: also called wild-type BMP-2
